Test results taken from the supplement of paper PMC5998384.

Tests used:
[1] = system: HeLa Kyoto; assay: solubility in G1/S (NP-40 vs SDS abundance) (log2 ratio); higher = more soluble; details: cell cycle stage: G1/S
[2] = system: HeLa Kyoto; assay: melting temperature (median over replicates), in situ; higher = more thermally stable
[3] = system: HeLa Kyoto; assay: solubility change mitosis vs G1/S (difference of NP-40 vs SDS log2 ratios) (log2 ratio difference); higher = more soluble in mitosis
[4] = system: HeLa Kyoto; assay: thermal stability score vs G1/S (z-score of summed log2 fold changes over temperatures); higher = more thermally stable than in G1/S
[5] = cell cycle stage: early G1 (4.5 h after nocodazole release)
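Wherever melting temperature (median over replicates), in situ is given: HeLa Kyoto cells synchronized by double thymidine or nocodazole block, proteins quantified by TMT10plex mass spectrometry, three independent biological replicates.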
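Wherever solubility change mitosis vs G1/S (difference of NP-40 vs SDS log2 ratios) is given: synchronized HeLa Kyoto cells (double thymidine block for G1/S, nocodazole release for mitosis), protein amounts in NP-40 versus SDS lysates quantified by mass spectrometry, three biological replicates.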
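Wherever solubility in G1/S (NP-40 vs SDS abundance) is given: HeLa Kyoto cells arrested at G1/S by double thymidine block, proteins quantified by TMT10plex mass spectrometry in mild NP-40 versus SDS extracts, three biological replicates.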
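Wherever thermal stability score vs G1/S (z-score of summed log2 fold changes over temperatures) is given: synchronized HeLa Kyoto cells, proteins quantified by TMT10plex mass spectrometry, three biological replicates, mitosis taken 0.5 h after nocodazole release, G1/S directly after double thymidine block.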

Sequence	solubility in G1/S (log2) [1]	melting temperature ([2]; cell cycle stage: G1/S) [°C]	melting temperature ([2]; cell cycle stage: mitosis) [°C]	solubility change mitosis (log2) [3]	thermal stability score [4, 5]	thermal stability score ([4]; cell cycle stage: mitosis)
MDAPRASAAKPPTGRKMKARAPPPPGKAATLHVHSDQKPPHDGALGSQQNLVRMKEALRASTMDVTVVLPSGLEKRSVLNGSHAMMDLLVELCLQNHLNPSHHALEIRSSETQQPLSFKPNTLIGTLNVHTVFLKEKVPEEKVKPGPPKVPEKSVRLVVNYLRTQKAVVRVSPEVPLQNILPVICAKCEVSPEHVVLLRDNIAGEELELSKSLNELGIKELYAWDNRRETFRKSSLGNDETDKEKKKFLGFFKVNKRSNSKGCLTTPNSPSMHSRSLTLGPSLSLGSISGVSVKSEMKKRRAPPPPGSGPPVQDKASEKVSLGSQIDLQKKKRRAPAPPPPQPPPPSPLIPNRTEDKEENRKSTMVSLPLGSGSHCSPDGAPQVLSEAEETVSVGSCFASEDTTEDSGVMSSPSDIVSLDSQQDSMKYKDKWATDQEDCSDQDLAGTPDLGPQKSPLWEKNGSENSHLRTEKAVTASNDEEDLLIAGEFRKTLAELDEDLEEMEDSYETDTSSLTSSIHGASNHCPQDAMIPHGDTDAIPVTFIGEVSDDPVDSGLFSNRNNNAGSFDSEGVASRRDSLAPLQAEHSQPHEKAREEVPALHPASHDVGKGIRVALSNISKDGNLMETAPRVTSFASNLHTDNLNAKVKDKVYGCADGERTQATERVNSQPVNEKDSNDKNAALAPTSWHQRGQNPGKSYRLKHGLTTYKIIPPKSEMRCYDRDVSLSTGAIKIDELGNLVSPHATGIRIISLSSSVPEAESQPIGKVREFWRCNSVEKHLGRPSESSARGPPSTPVPTQTQNPESRLQADPKPISPQQKSAHHEGRNPLGEGRNQPPTMGMGHVRVPAAHTTEVTFLKPQRRTSSQYVASAIAKRIGAPKVHADVVRPHGYAEKGYAGKAPVLAAPPVTVKDDRTSSPHSETQGWKDGAQWPCVTPPNNHGEDLAVGAPPRGEVIGPHRKLSTQDRPAAIHRSSCFSLVQSSQRDRVSVGQSCGFSGKQSTSSQEASSASEPRRAPDGTDPPPPHTSDTQACSRELVNGSVRAPGHGEPSHPPGGSGTESHILLEREEKPSVFSTDGNETDSIWPPSIFGPKKKFKPVVQRPVPKDTSLHSALMEAIHSAGGKDRLRKTAEHTGEGRPAKLSYTEAEGERSALLAAIRGHSGTCSLRKVASSASEELQSFRDAALSAQGSESPLLEDLGLLSPPAIPPPPPPPSQALSAPRTASRFSTGTLSNTADARQALMDAIRSGTGAARLRKVPLLV [COBL]	-0.423	49.1	49.8	0.177	1.3	1.18
MDDDDFGGFEAAETFDGGSGETQTTSPAIPWAAFPAVSGVHLSPSSPEIVLDRDHSSSIGCLSSDAIISSPENTHAANSIVSQTIPKAQIQQSTHTHLDISLFPLGLTDEKSNGTIALVDDSEDPGANVSNIQLQQKISSLEIKLKVSEEEKQRIKQDVESLMEKHNVLEKGFLKEKEQEAISFQDRYKELQEKHKQELEDMRKAGHEALSIIVDEYKALLQSSVKQQVEAIEKQYISAIEKQAHKCEELLNAQHQRLLEMLDTEKELLKEKIKEALIQQSQEQKEILEKCLEEERQRNKEALVSAAKLEKEAVKDAVLKVVEEERKNLEKAHAEERELWKTEHAKDQEKVSQEIQKAIQEQRKISQETVKAAIIEEQKRSEKAVEEAVKRTRDELIEYIKEQKRLDQVIRQRSLSSLELFLSCAQKQLSALIATEPVDIE [CCDC91]	0.348	53	52.1	-0.0653	-0.397	-0.35
MDDKELIEYFKSQMKEDPDMASAVAAIRTLLEFLKRDKGETIQGLRANLTSAIETLCGVDSSVAVSSGGELFLRFISLASLEYSDYSKCKKIMIERGELFLRRISLSRNKIADLCHTFIKDGATILTHAYSRVVLRVLEAAVAAKKRFSVYVTESQPDLSGKKMAKALCHLNVPVTVVLDAAVGYIMEKADLVIVGAEGVVENGGIINKIGTNQMAVCAKAQNKPFYVVAESFKFVRLFPLNQQDVPDKFKYKADTLKVAQTGQDLKEEHPWVDYTAPSLITLLFTDLGVLTPSAVSDELIKLYL [EIF2B1]	0.101	57.1	55.4	-0.134	-1.83	-1.69
MDDLCEANGTFAISLFKILGEEDNSRNVFFSPMSISSALAMVFMGAKGSTAAQMSQALCLYKDGDIHRGFQSLLSEVNRTGTQYLLRTANRLFGEKTCDFLPDFKEYCQKFYQAELEELSFAEDTEECRKHINDWVAEKTEGKISEVLDAGTVDPLTKLVLVNAIYFKGKWNEQFDRKYTRGMLFKTNEEKKTVQMMFKEAKFKMGYADEVHTQVLELPYVEEELSMVILLPDDNTDLAVVEKALTYEKFKAWTNSEKLTKSKVQVFLPRLKLEESYDLEPFLRRLGMIDAFDEAKADFSGMSTEKNVPLSKVAHKCFVEVNEEGTEAAAATAVVRNSRCSRMEPRFCADHPFLFFIRHHKTNCILFCGRFSSP [SERPINB8]	0.146	54.6	54.2	-0.115	-0.0278	-0.739
MDDPDCDSTWEEDEEDAEDAEDEDCEDGEAAGARDADAGDEDEESEEPRAARPSSFQSRMTGSRNWRATRDMCRYRHNYPDLVERDCNGDTPNLSFYRNEIRFLPNGCFIEDILQNWTDNYDLLEDNHSYIQWLFPLREPGVNWHAKPLTLREVEVFKSSQEIQERLVRAYELMLGFYGIRLEDRGTGTVGRAQNYQKRFQNLNWRSHNNLRITRILKSLGELGLEHFQAPLVRFFLEETLVRRELPGVRQSALDYFMFAVRCRHQRRQLVHFAWEHFRPRCKFVWGPQDKLRRFKPSSLPHPLEGSRKVEEEGSPGDPDHEASTQGRTCGPEHSKGGGRVDEGPQPRSVEPQDAGPLERSQGDEAGGHGEDRPEPLSPKESKKRKLELSRREQPPTEPGPQSASEVEKIALNLEGCALSQGSLRTGTQEVGGQDPGEAVQPCRQPLGARVADKVRKRRKVDEGAGDSAAVASGGAQTLALAGSPAPSGHPKAGHSENGVEEDTEGRTGPKEGTPGSPSETPGPSPAGPAGDEPAESPSETPGPRPAGPAGDEPAESPSETPGPRPAGPAGDEPAESPSETPGPSPAGPTRDEPAESPSETPGPRPAGPAGDEPAESPSETPGPRPAGPAGDEPAESPSETPGPSPAGPTRDEPAKAGEAAELQDAEVESSAKSGKP [OGFR]	0.423	48.1	49.6	-0.0617	1.46	3.46
MDDQGCPRCKTTKYRNPSLKLMVNVCGHTLCESCVDLLFVRGAGNCPECGTPLRKSNFRVQLFEDPTVDKEVEIRKKVLKIYNKREEDFPSLREYNDFLEEVEEIVFNLTNNVDLDNTKKKMEIYQKENKDVIQKNKLKLTREQEELEEALEVERQENEQRRLFIQKEEQLQQILKRKNKQAFLDELESSDLPVALLLAQHKDRSTQLEMQLEKPKPVKPVTFSTGIKMGQHISLAPIHKLEEALYEYQPLQIETYGPHVPELEMLGRLGYLNHVRAASPQDLAGGYTSSLACHRALQDAFSGLFWQPS [MNAT1]	-0.181	52.1	53	0.565	-0.397	-0.426
MDDQQALNSIMQDLAVLHKASRPALSLQETRKAKSSSPKKQNDVRVKFEHRGEKRILQFPRPVKLEDLRSKAKIAFGQSMDLHYTNNELVIPLTTQDDLDKAVELLDRSIHMKSLKILLVINGSTQATNLEPLPSLEDLDNTVFGAERKKRLSIIGPTSRDRSSPPPGYIPDELHQVARNGSFTSINSEGEFIPESMDQMLDPLSLSSPENSGSGSCPSLDSPLDGESYPKSRMPRAQSYPDNHQEFSDYDNPIFEKFGKGGTYPRRYHVSYHHQEYNDGRKTFPRARRTQGTSLRSPVSFSPTDHSLSTSSGSSIFTPEYDDSRIRRRGSDIDNPTLTVMDISPPSRSPRAPTNWRLGKLLGQGAFGRVYLCYDVDTGRELAVKQVQFDPDSPETSKEVNALECEIQLLKNLLHERIVQYYGCLRDPQEKTLSIFMEYMPGGSIKDQLKAYGALTENVTRKYTRQILEGVHYLHSNMIVHRDIKGANILRDSTGNVKLGDFGASKRLQTICLSGTGMKSVTGTPYWMSPEVISGEGYGRKADIWSVACTVVEMLTEKPPWAEFEAMAAIFKIATQPTNPKLPPHVSDYTRDFLKRIFVEAKLRPSADELLRHMFVHYH [MAP3K2]	0.0839	51.3	51.4	-0.043	0.798	1.24
MDEEYDVIVLGTGLTECILSGIMSVNGKKVLHMDRNPYYGGESSSITPLEELYKRFQLLEGPPESMGRGRDWNVDLIPKFLMANGQLVKMLLYTEVTRYLDFKVVEGSFVYKGGKIYKVPSTETEALASNLMGMFEKRRFRKFLVFVANFDENDPKTFEGVDPQTTSMRDVYRKFDLGQDVIDFTGHALALYRTDDYLDQPCLETVNRIKLYSESLARYGKSPYLYPLYGLGELPQGFARLSAIYGGTYMLNKPVDDIIMENGKVVGVKSEGEVARCKQLICDPSYIPDRVRKAGQVIRIICILSHPIKNTNDANSCQIIIPQNQVNRKSDIYVCMISYAHNVAAQGKYIAIASTTVETTDPEKEVEPALELLEPIDQKFVAISDLYEPIDDGCESQVFCSCSYDATTHFETTCNDIKDIYKRMAGTAFDFENMKRKQNDVFGEAEQ [GDI1]	0.0264	54.2	53.8	-0.152	-0.651	-1.41
MDESALLDLLECPVCLERLDASAKVLPCQHTFCKRCLLGIVGSRNELRCPECRTLVGSGVEELPSNILLVRLLDGIKQRPWKPGPGGGSGTNCTNALRSQSSTVANCSSKDLQSSQGGQQPRVQSWSPPVRGIPQLPCAKALYNYEGKEPGDLKFSKGDIIILRRQVDENWYHGEVNGIHGFFPTNFVQIIKPLPQPPPQCKALYDFEVKDKEADKDCLPFAKDDVLTVIRRVDENWAEGMLADKIGIFPISYVEFNSAAKQLIEWDKPPVPGVDAGECSSAAAQSSTAPKHSDTKKNTKKRHSFTSLTMANKSSQASQNRHSMEISPPVLISSSNPTAAARISELSGLSCSAPSQVHISTTGLIVTPPPSSPVTTGPSFTFPSDVPYQAALGTLNPPLPPPPLLAATVLASTPPGATAAAAAAGMGPRPMAGSTDQIAHLRPQTRPSVYVAIYPYTPRKEDELELRKGEMFLVFERCQDGWFKGTSMHTSKIGVFPGNYVAPVTRAVTNASQAKVPMSTAGQTSRGVTMVSPSTAGGPAQKLQGNGVAGSPSVVPAAVVSAAHIQTSPQAKVLLHMTGQMTVNQARNAVRTVAAHNQERPTAAVTPIQVQNAAGLSPASVGLSHHSLASPQPAPLMPGSATHTAAISISRASAPLACAAAAPLTSPSITSASLEAEPSGRIVTVLPGLPTSPDSASSACGNSSATKPDKDSKKEKKGLLKLLSGASTKRKPRVSPPASPTLEVELGSAELPLQGAVGPELPPGGGHGRAGSCPVDGDGPVTTAVAGAALAQDAFHRKASSLDSAVPIAPPPRQACSSLGPVLNESRPVVCERHRVVVSYPPQSEAELELKEGDIVFVHKKREDGWFKGTLQRNGKTGLFPGSFVENI [SH3RF1]	0.517	49.3	51	-0.13	0.34	1.14
MDFEDDYTHSACRNTYQGFNGMDRDYGPGSYGGMDRDYGHGSYGGQRSMDSYLNQSYGMDNHSGGGGGSRFGPYESYDSRSSLGGRDLYRSGYGFNEPEQSRFGGSYGGRFESSYRNSLDSFGGRNQGGSSWEAPYSRSKLRPGFMEDRGRENYSSYSSFSSPHMKPAPVGSRGRGTPAYPESTFGSRNYDAFGGPSTGRGRGRGHMGDFGSIHRPGIVVDYQNKSTNVTVAAARGIKRKMMQPFNKPSGTFIKKPKLAKPMEKISLSKSPTKTDPKNEEEEKRRIEARREKQRRRREKNSEKYGDGYRMAFTCSFCKFRTFEEKDIELHLESSSHQETLDHIQKQTKFDKVVMEFLHECMVNKFKKTSIRKQQTNNQTEVVKIIEKDVMEGVTVDDHMMKVETVHCSACSVYIPALHSSVQQHLKSPDHIKGKQAYKEQIKRESVLTATSILNNPIVKARYERFVKGENPFEIQDHSQDQQIEGDEEDEEKIDEPIEEEEDEDEEEEAEEVGEVEEVEEVEEVREGGIEGEGNIQGVGEGGEVGVVGEVEGVGEVEEVEELEEETAKEEPADFPVEQPEEN [ZNF326]	-0.456	47	49.1	0.239	3.18	7.29
